In US20060105407:

How the values were obtained:
leptin-monomer Ab1 = leptin-monomer Ab1 (UniProt P41159)
leptin-dimer Ab1 = leptin-dimer Ab1 (UniProt P41159)
[1] = target: T1, malic enzyme-monomer kemptide (UniProt P26616)
T1 sequence: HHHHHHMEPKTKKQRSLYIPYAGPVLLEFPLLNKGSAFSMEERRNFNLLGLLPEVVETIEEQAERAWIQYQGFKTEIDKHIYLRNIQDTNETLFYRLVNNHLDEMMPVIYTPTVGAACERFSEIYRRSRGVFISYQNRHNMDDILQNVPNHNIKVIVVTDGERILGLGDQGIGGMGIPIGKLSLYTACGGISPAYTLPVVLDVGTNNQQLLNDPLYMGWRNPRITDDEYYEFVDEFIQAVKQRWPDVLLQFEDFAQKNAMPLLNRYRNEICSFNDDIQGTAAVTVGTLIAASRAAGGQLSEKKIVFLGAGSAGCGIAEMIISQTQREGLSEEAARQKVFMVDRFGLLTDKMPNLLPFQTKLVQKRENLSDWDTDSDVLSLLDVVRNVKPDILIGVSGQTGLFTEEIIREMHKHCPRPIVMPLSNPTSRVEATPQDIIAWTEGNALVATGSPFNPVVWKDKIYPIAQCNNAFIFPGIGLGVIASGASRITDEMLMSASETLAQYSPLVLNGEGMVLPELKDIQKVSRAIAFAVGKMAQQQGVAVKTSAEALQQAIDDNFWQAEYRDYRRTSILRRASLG

leptin-dimer kemptide = leptin-dimer kemptide (UniProt P41159)
Chain of leptin-dimer kemptide (P41159 other isoform, or with tags, fused parts or gaps): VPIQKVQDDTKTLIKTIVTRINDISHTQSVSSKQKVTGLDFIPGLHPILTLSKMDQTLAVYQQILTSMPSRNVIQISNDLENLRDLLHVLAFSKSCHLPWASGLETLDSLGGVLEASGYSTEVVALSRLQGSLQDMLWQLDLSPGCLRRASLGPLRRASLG

Chain of leptin-dimer Ab1 (P41159 other isoform, or with tags, fused parts or gaps): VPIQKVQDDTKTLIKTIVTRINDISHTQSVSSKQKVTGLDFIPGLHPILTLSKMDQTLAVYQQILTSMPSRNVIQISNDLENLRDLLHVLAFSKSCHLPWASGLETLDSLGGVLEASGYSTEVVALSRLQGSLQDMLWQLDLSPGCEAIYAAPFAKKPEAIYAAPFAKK
Chain of leptin-monomer Ab1 (P41159 other isoform, or with tags, fused parts or gaps): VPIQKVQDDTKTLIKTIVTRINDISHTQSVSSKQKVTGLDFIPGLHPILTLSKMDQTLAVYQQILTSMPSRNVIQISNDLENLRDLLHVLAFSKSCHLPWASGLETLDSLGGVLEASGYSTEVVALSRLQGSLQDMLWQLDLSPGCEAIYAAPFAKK

Substance | fluorometric analysis of phosphorylation on protein chip (Cy5-labeled anti-phosphorylation tyrosine antibody) (leptin-monomer Ab1) | fluorometric analysis of phosphorylation on protein chip (Cy5-labeled anti-phosphorylation tyrosine antibody) (leptin-dimer Ab1) | fluorometric analysis of phosphorylation on protein chip (Cy3-labeled anti-phosphorylation serine antibody) [1] | fluorometric analysis of phosphorylation on protein chip, 10-fold diluted spots (leptin-dimer kemptide)
Ab1 kinase | the Ab1 kinase showed a specific interaction with the Ab1 monomer and dimer fused with leptin | the Ab1 kinase showed a specific interaction with the Ab1 monomer and dimer fused with leptin | – | –
protein kinase A | – | – | the protein kinase A showed a specific interaction with the kemptide of a form fused with the leptin or malic enzyme | In a diluted state as shown by 2 and 4, the dimer showed a higher reactivity than the monomer
